According to IntAct's records for PubMed 24352239:

Molecular target: spt16_yeast SPT16 (UniProt P32558)
Sequence (P32558 whole entry): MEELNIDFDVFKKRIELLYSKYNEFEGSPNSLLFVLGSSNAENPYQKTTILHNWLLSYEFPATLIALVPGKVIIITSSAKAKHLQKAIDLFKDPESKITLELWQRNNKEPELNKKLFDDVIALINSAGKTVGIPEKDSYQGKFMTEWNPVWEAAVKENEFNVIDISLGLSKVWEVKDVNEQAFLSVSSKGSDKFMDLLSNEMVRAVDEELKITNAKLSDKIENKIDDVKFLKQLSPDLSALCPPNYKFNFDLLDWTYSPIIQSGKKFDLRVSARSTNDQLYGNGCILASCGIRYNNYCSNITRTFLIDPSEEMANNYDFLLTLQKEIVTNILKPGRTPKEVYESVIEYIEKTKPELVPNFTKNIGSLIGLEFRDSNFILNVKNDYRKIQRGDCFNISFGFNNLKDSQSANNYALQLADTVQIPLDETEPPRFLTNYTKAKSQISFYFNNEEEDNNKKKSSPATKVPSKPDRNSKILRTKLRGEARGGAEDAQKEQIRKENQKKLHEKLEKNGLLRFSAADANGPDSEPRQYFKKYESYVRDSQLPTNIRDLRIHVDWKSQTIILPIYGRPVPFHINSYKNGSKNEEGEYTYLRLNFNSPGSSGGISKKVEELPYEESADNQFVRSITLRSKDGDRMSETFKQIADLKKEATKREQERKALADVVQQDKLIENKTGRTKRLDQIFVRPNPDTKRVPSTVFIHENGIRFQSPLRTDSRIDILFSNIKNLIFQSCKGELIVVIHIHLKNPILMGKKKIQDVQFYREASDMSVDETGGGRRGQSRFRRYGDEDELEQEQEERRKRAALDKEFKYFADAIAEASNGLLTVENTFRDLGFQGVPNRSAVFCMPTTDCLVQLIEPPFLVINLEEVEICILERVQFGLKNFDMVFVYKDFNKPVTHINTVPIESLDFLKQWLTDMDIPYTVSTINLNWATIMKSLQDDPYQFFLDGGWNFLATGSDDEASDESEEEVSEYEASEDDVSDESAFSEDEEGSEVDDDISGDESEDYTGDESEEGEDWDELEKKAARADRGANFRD

effect of a mutation on the interaction: decreasing interaction strength
Substance: Histone H2A type 3 (Homo sapiens) (from UniProt Q7L7L0) Q105A
